Reference: patent publication US20250326826A1 (CENTRO DE INGENIER A GEN TICA Y BIOTECNOLOG A, published 2025)
Like-named read-outs stand apart in the source and are kept apart here. Values belong to the binder of their own block, whether it stands above or below them.

Columns and labels:
GST-hVEGF121 [1] = target: T1, GST-hVEGF121 (human, UniProt P15692-9 27-147); assay: ELISA, coated GST-hVEGF
T1 construct: plate coating of the VEGF ELISAs; also called human VEGF; not shown: glutathione S-transferase (GST) fusion partner
T1 sequence (looked up): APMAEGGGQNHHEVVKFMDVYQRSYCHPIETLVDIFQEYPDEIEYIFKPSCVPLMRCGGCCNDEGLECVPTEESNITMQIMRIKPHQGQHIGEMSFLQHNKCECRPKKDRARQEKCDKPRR

GST-hVEGF121 [2] = target: T1, GST-hVEGF121; assay: competition ELISA, coated GST-hVEGF, competitor Fc-VEGFR2
GST-hVEGF121 [3] = target: T1, GST-hVEGF121; assay: as above; remark: listed apart in the source
Experimental: (§1) The ability of VHHs to hinder receptors for binding to their ligand was assessed by ELISA, for which 96-well plates (NUNC, USA) were coated with GST-hVEGF or bFGF and blocked as described in the previous section. Serial 1:2 dilutions of the purified VHHs, from […] to […], were added and the plates and incubated for 1 h at 37° C. In this step, some wells were left where only PBS-milk was added. […] After 45 min incubation at 37° C., plates were washed with PBS-0.05% Tween. To detect receptor binding, HRP-conjugated anti-human IgG antibody was added, diluted 1:5000 in PBS-0.5% milk. After incubation for 1 h at 37° C., the plates were washed with PBS-Tween, and TMB was added. The reaction was stopped after 10 min. Wells incubated with the receptors without the addition of the antibody fragments were taken as reference for maximum binding in the absence of competitor. In this assay, in the case of inhibition of the VEGF/VEGFR axis, the CIGB166a antibody fragment was used as a positive control, and an anti-FGF polyclonal antibody was used for the FGF/FGFR axis. The percentage of inhibition of receptor binding to its ligand was calculated as follows: […]
The biological effect of VEGF is a consequence of its binding to two fundamental receptors (VEGFR1 and VEGFR2), so for a polypeptide that binds to VEGF to be effective in the therapeutic setting, it must block these interactions (Shibuya, Cell Structure and Function, 2001: 26: 25-35). The ability of Nb-V1 to compete with receptors 1 and 2 for binding to its ligand (VEGF) was assessed by solid phase ligand competition ELISA, as described above.

[4] = target: bFGF (soluble stimulus added to cell cultures); assay: cell-based or functional assay
[5] = target: VEGF (soluble stimulus added to cell cultures); assay: cell-based or functional assay
Recombinant human bFGF [6] = target: T2, Recombinant human bFGF (human, UniProt P09038 143-288, limits assumed); assay: ELISA, coated human bFGF
T2 construct: Bought (Sigma); also called hFGF-2; human basic fibroblast growth factor
Experimental: (§2) The 96-well plates were coated with 100 μL/well of a solution of GST-hVEGF121, GST-mVEGF120, or GST at a concentration of 20 μg/mL, or with a solution of VEGFKDR- at a concentration of 10 μg/mL, or hFGF-2 or mFGF-2 at a concentration of 5 μg/mL in 1×PBS for 16 hours at 4° C. After the plates were blocked with PBS-5% skim milk for one hour, 1:2 serial dilutions of the purified VHHs were added, starting at 2 μg/mL in PBS-0.5% skim milk. The plates were incubated for 1 hour at 37° C. and after several washes, the monoclonal antibody 9E10, specific for c-myc, was added. After one hour of incubation at 25° C. the plates were washed thoroughly. The binding of the fragment to the antigen in the solid phase was detected by the peroxidase activity using 100 μL/well of TMB. The reaction was stopped with 50 μL/well of stop solution, and absorbance values at 450 nm were determined in a microtiter plate reader.
SEQ ID NO: 18 and SEQ ID NO: 19, and the bivalent Nb-VV6 and Nb-FF2, with sequences identified as SEQ ID NO: 20 and SEQ ID NO: 21, were expressed and purified as described in the Example 1. In all cases, the purity and identity of the proteins were verified by SDS-PAGE 12% and anti-polyhistidine Western Blot. […] The experimental mass of the polypeptides and the arrangement of the disulfide bridges were checked by ESI/MS-MS. The experimental and theoretical mass, for each polypeptide coincided, with errors less than 0.0015% in all cases, and the formation of intramolecular bridges between C22-C101 and C168-C247 was verified. […] The biological activity of the polypeptides was evaluated by ELISA for recognition of the VEGF and bFGF antigens, and by their ability to displace VEGF and bFGF binding to their respective VEGFR2 and FGFR1 receptors. […] Similarly, it was shown that the ability to displace the binding of antigens by their receptors was not affected.

Recombinant human bFGF [7] = target: T2, Recombinant human bFGF; assay: competition ELISA, coated bFGF, competitor Fc-FGFR1
Experimental: as §1

GST-hVEGF121 [8] = target: T1, GST-hVEGF121; assay: ELISA, coated GST-hVEGF; remark: listed apart in the source
Experimental: as §2

Recombinant human bFGF [9] = target: T2, Recombinant human bFGF; assay: ELISA, coated human bFGF; remark: listed apart in the source
Recombinant human bFGF [10] = target: T2, Recombinant human bFGF; assay: competition ELISA, coated bFGF, competitor Fc-FGFR1; remark: listed apart in the source

T2 sequence (P09038 143-288 limits assumed): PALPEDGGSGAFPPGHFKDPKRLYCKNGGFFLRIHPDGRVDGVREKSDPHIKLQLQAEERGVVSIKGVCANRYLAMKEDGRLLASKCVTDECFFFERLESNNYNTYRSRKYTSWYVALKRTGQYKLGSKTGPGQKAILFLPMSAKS
Sequence of VEGF (soluble stimulus added to cell cultures) (P15692 whole entry): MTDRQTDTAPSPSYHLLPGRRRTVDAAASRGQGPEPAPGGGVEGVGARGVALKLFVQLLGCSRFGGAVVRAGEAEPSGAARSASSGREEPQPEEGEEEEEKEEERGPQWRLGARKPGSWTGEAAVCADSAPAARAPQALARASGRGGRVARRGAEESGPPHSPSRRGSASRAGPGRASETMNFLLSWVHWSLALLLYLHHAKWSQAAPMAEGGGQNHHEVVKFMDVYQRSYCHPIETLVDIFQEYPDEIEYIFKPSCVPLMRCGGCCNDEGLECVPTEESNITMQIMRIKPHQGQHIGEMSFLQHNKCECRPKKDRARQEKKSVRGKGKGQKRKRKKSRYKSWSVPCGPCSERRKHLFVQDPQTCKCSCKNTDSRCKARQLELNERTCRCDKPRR

B1: Nb-V1\cmycH6 (VHH)
VHH: QVQLVESGGGLVQPGGSLRLSCAASGNSAEDRLYNSYTWFRQAPGQGLEAVAAISSHFSAGLTYYADSVKGRFTISRDNSKNTLYLQMNSLRAEDTAVYYCEITSHASHNDAWSTPRTVWGQGTLVTVSS
notes: Nb-V1 without c-myc tracer peptide and histidine tag
EC50 (GST-hVEGF121 [1]): 4.64 nM | IC50 (GST-hVEGF121 [2]): 28.6 nM

B3: Nb-VV6\cmycH6 (VHH)
chain: QVQLVESGGGLVQPGGSLRLSCAASGNSAEDRLYNSYTWFRQAPGQGLEAVAAISSHFSAGLTYYADSVKGRFTISRDNSKNTLYLQMNSLRAEDTAVYYCEITSHASHNDAWSTPRTVWGQGTLVTVSSAHHSEDPSSKAPKAPAQVQLVESGGGLVQPGGSLRLSCAASGNSAQDRLYNSYTWFRQAPGQGLEAVAAISSHFSAGLTYYADSVKGRFTISRDNSKNTLYLQMNSLRAEDTAVYYCEITSHASHNDAWSTPRTVWGQGTLVTVSS
notes: Nb-VV6 without c-myc tracer peptide and histidine tag
EC50 (GST-hVEGF121 [1]): 1.78 nM | IC50 (GST-hVEGF121 [2]): 5.23 nM

B5: Nb-FV1\cmycH6 (bispecific antibody)
chain: QVQLVESGGGLVQPGGSLRLSCAASGTEDGRLLTLGGSWFRQAPGQGLEAVAAIGAGDRGGATYYADSVKGRFTISRDNSKNTLYLQMNSLRAEDTAVYYCTALYERQPQLAATKVARKWGQGTLVTVSSAHHSEDPSSKAPKAPAQVQLVESGGGLVQPGGSLRLSCAASGNSAEDRLYNSYTWFRQAPGQGLEAVAAISSHFSAGLTYYADSVKGRFTISRDNSKNTLYLQMNSLRAEDTAVYYCEITSHASHNDAWSTPRTVWGQGTLVTVSS
notes: Nb-FV1 without c-myc tracer peptide and histidine tag
EC50 (GST-hVEGF121 [1]): 4.56 nM | EC50 (Recombinant human bFGF [9]): 11.8 nM | IC50 (GST-hVEGF121 [2]): 28.6 nM | IC50 (Recombinant human bFGF [10]): 132 nM

More lines, now with the values ahead:

IC50 (GST-hVEGF121 [3]): 28.5 nM | IC50, proliferation of HDMEC cells +bFGF (10 ng/ml) [4]: 120 nM | IC50, proliferation of HDMEC cells +VEGF (5 ng/ml) [5]: 132 nM | EC50 (Recombinant human bFGF [6]): 11.3 nM | IC50 (Recombinant human bFGF [7]): 136 nM | EC50 (GST-hVEGF121 [8]): 4.49 nM
B2: Nb-VF3 (bispecific antibody)
chain: QVQLVESGGGLVQPGGSLRLSCAASGNSAEDRLYNSYTWFRQAPGQGLEAVAAISSHFSAGLTYYADSVKGRFTISRDNSKNTLYLQMNSLRAEDTAVYYCEITSHASHNDAWSTPRTVWGQGTLVTVSSAHHSEDPSSKAPKAPAQVQLVESGGGLVQPGGSLRLSCAASGTEDGRLLTLGGSWFRQAPGQGLEAVAAIGAGDRGGATYYADSVKGRFTISRDNSKNTLYLQMNSLRAEDTAVYYCTALYERQPQLAATKVARKWGQGTLVTVSSAAAGSEQKLISEEDLNSHHHHHH
notes: Bispecific tandem VHH (VEGF and bFGF); with c-myc and histidine tag

EC50 (Recombinant human bFGF [9]): 5.98 nM | IC50 (Recombinant human bFGF [10]): 53.7 nM
B4: Nb-FF2\cmycH6 (VHH)
chain: QVQLVESGGGLVQPGGSLRLSCAASGTEDGRLLTLGGSWFRQAPGQGLEAVAAIGAGDRGGATYYADSVKGRFTISRDNSKNTLYLQMNSLRAEDTAVYYCTALYERQPQLAATKVARKWGQGTLVTVSSAHHSEDPSSKAPKAPAQVQLVESGGGLVQPGGSLRLSCAASGTEDGRLLTLGGSWFRQAPGQGLEAVAAIGAGDRGGATYYADSVKGRFTISRDNSKNTLYLQMNSLRAEDTAVYYCTALYERQPQLAATKVARKWGQGTLVTVSS
notes: Nb-FF2 without c-myc tracer peptide and histidine tag
